In patent US20170224833A1, “SELF-ASSEMBLING MOLECULES THAT ACCUMULATE IN ACIDIC TUMOR MICROENVIRONMENTS” (OHIO STATE INNOVATION FOUNDATION, priority 2014, published 2017):
Values belong to the compound of their own block, whether it stands above or below them. Residues, ends and D or L forms follow the SMILES beside them. *: point of attachment. Palmitoyl = CCCCCCCCCCCCCCCC(=O)*

Experiments:
[1] = Circular dichroism (CD) spectroscopy of pH-triggered self-assembly transition in 150 mM NaCl, 2.2 mM CaCl2; assay type: physicochemical; settings: for secondary structure by CD: irrespective of concentration and pH (pH 5-10); for CD Transition pH: random coil to β-sheet
Protocol: The target PA concentration (10 μM) was below the detectable limit of conventional techniques to determine the morphology such as cryoTEM and small-angle X-ray scattering. Consequently, circular dichroism (CD) spectroscopy was initially used to characterize the morphology of these PAs at various pH values. PA1 was the first molecule synthesized that underwent a self-assembly transition in the desired pH range of 6.6-7.4 at 10 μM PA concentration, in 150 mM NaCl and 2.2 mM CaCl2 (FIG. 2A) (Goldberger, J. E., et al. Angew. Chem. Int. Ed. 2011 50:6292-95). […] The transition pH from random coil to β-sheet occurred at a pH of 6.6. The transition pH was defined as the value at which the ellipticity at 205 nm rises to zero, followed by the appearance of a minimum at 218-220 nm.
Measurements were done on a Jasco-815 Circular Dichroism spectrometer using 1 cm path length quartz cuvettes. 10 μM solutions of peptide amphiphiles were prepared in 150 mM NaCl and 2.2 mM CaCl2 by dilution from a concentrated PA stock (0.5-1 mM, pH 9). Double de-ionized Milli-Q water was used for preparing all solutions. The solutions were then heated at 80° C. for 30 minutes in a water bath and gradually cooled to room temperature. An Accumet XL15 pH meter (Fisher Scientific) coupled with an Orion Ross Ultra semi-micro electrode (8103BNUWP, Thermo Scientific) was used to adjust the pH of the solution to the desired value followed by collection of the CD spectra Each trace shown was averaged over 3 accumulations and was baseline subtracted using aqueous solutions containing salts only. All spectra are cut-off below 205 nm due to absorption by NaCl and CaCl2.
Measurements were done on a Jasco-815 Circular Dichroism spectrometer using 0.5-1 cm path length quartz cuvettes. 500-10 μM of either pure PA or PA mixtures were prepared in 150 mM NaCl and 2.2 mM CaCl2 (and 1.8 mM 20 kDa PEG in select samples) by dilution from a concentrated PA stock (0.5-1 mM, pH 9). Double de-ionized Milli-Q water was used for preparing all solutions. The solutions were then heated at 80° C. for 30 minutes in a water bath and gradually cooled to room temperature. An Accumet XL15 pH meter (Fisher Scientific) coupled with an Orion Ross Ultra semi-micro electrode (8103BNUWP, Thermo Scientific) was used to adjust the pH of the solution to the desired value followed by collection of the CD spectra. Each trace shown was averaged over 3 accumulations and was baseline subtracted using aqueous solutions containing salts only. All spectra are cut-off below 200 nm due to absorption by NaCl and CaCl2. The same procedure was followed for the salt control samples with 3.0 and 4.0 mM CaCl2.
Self-assembly behavior is known to be extremely sensitive to minor changes in monomer structure and presence of impurities. […] CAC measurements via the pyrene 1:3 method (Das, D. et al. J. Colloid Interface Sci. 2008, 327:198) were used to ascertain the single molecule to spherical micelle transitions at varying pH values (FIGS. 24A-24C). CD Spectroscopy was used to determine the pH points at which different concentrations (10-500 μM) of the PA molecules transitioned from a random coil to a β-sheet secondary structure (FIGS. 25A-25C). It has been previously shown that the random coil and β-sheet structures correspond to spherical micellar/isolated molecule and nanofiber morphologies respectively (Ghosh, A. et al. J. Am. Chem. Soc. 2012, 134:3647). The CD transition point was defined to be the pH value at which the ellipticity at 200 nm rose from a negative value (random coil) to zero accompanied by the appearance of a minimum at 218-220 nm. The addition of PA66 shifted the CD transition pH to more basic values by ˜0.6 pH units. […] This ˜0.6 pH shift in CD transition pH to more basic values were also observed when 1.5% of PA67 was added to PA65. […]

[2] = Transmission electron microscopy (TEM) of self-assembled morphology; assay type: physicochemical; settings: for fiber diameter: pH 8.0 (100 μM, FIG. 40); for average diameter of isolated nanofibers: 0.5 mM
Protocol: TEM images were obtained using solutions of either 10 μM or 0.5 mM peptide amphiphile concentration, as well as 150 mM NaCl and 2.2 mM CaCl2 in Milli-Q water. The solutions were first heated at 80° C. for 30 minutes in a water bath and then gradually cooled to room temperature. This was followed by pH adjustment using either HCl or NaOH. 5 μL of this solution was pipetted onto a Carbon Formvar grid (Electron Microscopy Sciences) and allowed to sit for 2 minutes before being wicked dry using filter paper. For the 10 μM experiments that were performed to determine the time dependence of nanofiber formation, solutions were dropcast onto the grid within three minutes of pH adjustment. The samples were then negatively stained using 1 wt % uranyl acetate and imaged under a FEI Tecnai G2 Bio TWIN TEM system, operating at 100 kV. All TEM experiments were performed in triplicate, using at least three different freshly prepared solutions and grids. […]
TEM images were obtained at various concentrations and pH values, with 150 mM NaCl and 2.2 mM CaCl2 in deionized water. Solutions were heated at 80° C. for 30 minutes and gradually cooled to room temperature. Following temperature equilibration, pH adjustment was achieved using HCl or NaOH. 5 μL of this solution was pipetted onto a Carbon Formvar grid (Electron Microscopy Sciences) and allowed to sit for 2 minutes before being wicked dry using filter paper strips. The samples were negatively stained with 1 wt % uranyl acetate and imaged under a FEI Tecnai G2 Bio TWIN TEM system operating at 100 kV.
Transmission electron microscopy was employed to confirm the self-assembled morphology at different pH values and concentrations. The sample to be tested was basified to a pH of 10, stirred at 90° C. in an oil bath for 30 minutes and cooled to room temperature. The pH was then adjusted with HCl and NaOH to set the peptide solution (in 150 mM NaCl and 2.2 mM CaCl2) to a pH of either 5 or 9. Once the desired pH was reached, 5 μL of the sample was placed and spread onto a Carbon Formvar grid (Electron Microscopy Sciences) and allowed to sit for one minute before being wicked dry with filter paper. A 1 wt % uranyl acetate solution was added and spread over the grid to negatively stain the sample, and was wicked dry immediately after application. The grid was then examined by a FEI Tecnai G2 Biotwin TEM at 100 keV. The diameters of each self-assembled morphology was determined via averaging at least 30 different objects.

[3] = 10 μM PA, 150 mM NaCl, 2.2 mM CaCl2

Compound: palmitoyl-YYAAEEEEEK(DO3A:Gd)-NH2 (Palmitoyl-YYAAEEEEEK(DO3A)-NH2; also: DO3A chelates Gd) [PA74]
pH below which nanofibers form (CD morphology transition) ([1]; 50 μM): 5.75
nanofiber diameter ([2]; FIG. 50: pH 5, PA74 500 μM, PA75 100 μM): 9.7+/−1.2 nm
morphology by TEM ([2]; pH 5, PA74 500 μM, PA75 100 μM): nanofiber morphology
morphology by TEM ([2]; pH 9, PA74 500 μM, PA75 100 μM): spherical micelle morphology

morphology by CD ([1]; 8.4 μM and above): formed nanofibers across all pH values
nanofiber diameter ([2]; 100 μM, pH 5.0 and 8.3): 9.5±0.8 nm
Compound: CCCCCCCCCCCCCCCC(=O)N[C@@H](C)C(=O)N[C@H](C(=O)N[C@@H](C)C(=O)N[C@@H](C)C(=O)N[C@@H](CCC(=O)O)C(=O)N[C@@H](CCC(=O)O)C(=O)N[C@@H](CCC(=O)O)C(=O)N[C@@H](CCC(=O)O)C(N)=O)[C@@H](C)CC [PA68] (Palmitoyl-AIAAEEEE-NH2)

Compound: Palmitoyl-AIAAEEEEK(DO3A:Gd)-NH2 (Palmitoyl-AIAAEEEEK(DO3A)-NH2; also: DO3A chelates Gd) [PA71]
secondary structure by CD [1]: exclusively 3-sheet formation irrespective of concentration and pH
nanofiber length ([2]; pH 6.6, 150 μM): > 1 μm
nanofiber width ([2]; pH 6.6, 150 μM): ~11.3±1.1 nm
fiber diameter [2]: ~9.6±0.5 nm

Compound: Palmitoyl-IAAAEEEEK(DO3A:Gd)-NH2 (Palmitoyl-IAAAEEEEK(DO3A)-NH2; also: DO3A chelates Gd) [PA5]
CD Transition pH [1, 3]: 5.7
nanofiber to micelle transition pH ([1]; 20 μM PA): 5.7
nanofiber to micelle transition pH ([1]; 0.5 mM PA): 6.0
pH transition point at 10 μm PA ([1]; basic to acidic transition from spherical micelle to cylindrical fiber, simulated serum environment (150 mM NaC, 2.2 mM CaCl2)): 5.7
nanofiber diameter ([2]; 0.5 mM PA, pH 4): 11.9±1.6 nm
spherical micelle diameter ([2]; 0.5 mM PA, pH 10): 10.0±1.2 nm

pH above which CD shows superimposable random coil morphology [1, 3]: 6.82
CD Transition pH [1, 3]: 6.6
transition between random coil and β-sheet structure (reversibility) ([1]; 10 μM, pH switched between 7.75 and 6.1, three cycles): rapid and reversible
pH transition point at 10 μm PA ([1]; basic to acidic transition from small molecule to cylindrical nanofiber, simulated serum environment): 6.6
average diameter of isolated fibers ([2]; 10 μM, pH 6): 9.1±1.5 nm
average length of isolated fibers ([2]; 10 μM, pH 6, grids within three minutes of pH adjustment): 590±200 nm
fibers observed by TEM ([2]; 10 μM, pH 8): no fibers were present
average diameter of isolated nanofibers ([2]; pH 6.0): 9.4±1.1 nm
average diameter of isolated nanofibers ([2]; pH 10.0): 9.5±1.2 nm
Compound: CCCCCCCCCCCCCCCC(=O)N[C@H](C(=O)N[C@@H](C)C(=O)N[C@@H](C)C(=O)N[C@@H](C)C(=O)N[C@@H](CCC(=O)O)C(=O)N[C@@H](CCC(=O)O)C(=O)N[C@@H](CCC(=O)O)C(=O)N[C@@H](CCC(=O)O)C(N)=O)[C@@H](C)CC [PA1] (Palmitoyl-IAAAEEEE-NH2)
time required to achieve the expected morphology after pH change ([1]; 10 μM, 150 mM NaCl, 2.2 mM CaCl2): three minutes or less

Compound: Palmitoyl-AAAIEEEE-NH2 (SMILES CCCCCCCCCCCCCCCC(=O)N[C@@H](C)C(=O)N[C@@H](C)C(=O)N[C@@H](C)C(=O)N[C@H](C(=O)N[C@@H](CCC(=O)O)C(=O)N[C@@H](CCC(=O)O)C(=O)N[C@@H](CCC(=O)O)C(=O)N[C@@H](CCC(=O)O)C(N)=O)[C@@H](C)CC) [PA70]
secondary structure by CD [1]: β-sheet secondary structure regardless of concentration and pH
fiber diameter [2]: ~9.0±0.8 nm
